# Source: paper PMC4338332 (RNA, 2015)
# T1: Non-POU domain-containing octamer-binding protein (NONO), endogenous, from HeLa nuclear extract (human (endogenous in HeLa), UniProt Q15233 1-471)
# T1 sequence: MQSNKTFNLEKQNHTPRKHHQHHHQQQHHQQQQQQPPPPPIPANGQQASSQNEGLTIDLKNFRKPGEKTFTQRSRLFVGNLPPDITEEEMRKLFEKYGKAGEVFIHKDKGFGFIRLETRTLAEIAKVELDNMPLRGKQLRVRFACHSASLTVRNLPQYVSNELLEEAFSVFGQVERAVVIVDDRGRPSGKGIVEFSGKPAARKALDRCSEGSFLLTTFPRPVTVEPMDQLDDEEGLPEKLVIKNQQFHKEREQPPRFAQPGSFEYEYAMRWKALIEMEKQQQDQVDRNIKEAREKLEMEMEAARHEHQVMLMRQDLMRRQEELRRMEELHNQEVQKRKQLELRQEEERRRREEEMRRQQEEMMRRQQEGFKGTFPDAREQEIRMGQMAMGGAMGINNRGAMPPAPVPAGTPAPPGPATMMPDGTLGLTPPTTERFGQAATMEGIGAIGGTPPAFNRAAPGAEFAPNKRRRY
# Biological target: T1, Non-POU domain-containing …
# Assay: affinity purification with mass spectrometry
binder,measurement,value
"Splicing factor, proline- and glutamine-rich (SFPQ), endogenous, from HeLa nuclear extract (natural protein) MSRDRFRSRGGGGGGFHRRGGGGGRGGLHDFRSPPPGMGLNQNRGPMGPGPGQSGPKPPIPPPPPHQQQQQPPPQQPPPQQPPPHQPPPHPQPHQQQQPPPPPQDSSKPVVAQGPGPAPGVGSAPPASSSAPPATPPTSGAPPGSGPGPTPTPPPAVTSAPPGAPPPTPPSSGVPTTPPQAGGPPPPPAAVPGPGPGPKQGPGPGGPKGGKMPGGPKPGGGPGLSTPGGHPKPPHRGGGEPRGGRQHHPPYHQQHHQGPPPGGPGGRSEEKISDSEGFKANLSLLRRPGEKTYTQRCRLFVGNLPADITEDEFKRLFAKYGEPGEVFINKGKGFGFIKLESRALAEIAKAELDDTPMRGRQLRVRFATHAAALSVRNLSPYVSNELLEEAFSQFGPIERAVVIVDDRGRSTGKGIVEFASKPAARKAFERCSEGVFLLTTTPRPVIVEPLEQLDDEDGLPEKLAQKNPMYQKERETPPRFAQHGTFEYEYSQRWKSLDEMEKQQREQVEKNMKDAKDKLESEMEDAYHEHQANLLRQDLMRRQEELRRMEELHNQEMQKRKEMQLRQEEERRRREEEMMIRQREMEEQMRRQREESYSRMGYMDPRERDMRMGGGGAMNMGDPYGSGGQKFPPLGGGGGIGYEANPGVPPATMSGSMMGSDMRTERFGQGGAGPVGGQGPRGMGPGTPAGYGRGREEYEGPNKKPRF",stoichiometry N,1
